This is an account of results in publication PMC5342242, “Altering the N-terminal arms of the polymerase manager protein UmuD modulates protein interactions” (PLoS ONE, 2017).

B1: UmuD 18 S60A (domain or fragment, E. coli, UniProt P0AG11 18-139, looked up)
chain: FSDLVQCGFPSPAADYVEQRIDLNQLLIQHPSATYFVKASGDAMIDGGISDGDLLIVDSAITASHGDIVIAAVDGEFTVKKLQLRPTVQLIPMNSAYSPITISSEDTLDVFGVVIHVVKAMR
notes: UmuD, E. coli, lacking the N-terminal 17 residues (Δ1–17) of the 139-residue full-length protein; non-cleavable active-site variant S60A; Plasmid pSG5 derivative; also called UmuD Δ1–17 S60A; source: constructed in pSG5, expressed and purified as previously described [33, 34]
B2: UmuD 3A (natural protein, E. coli, UniProt P0AG11 1-139, looked up)
chain: MLFIKPADLREIVAFPAASDLVQCGFPSPAADYVEQRIDLNQLLIQHPSATYFVKASGDSMIDGGISDGDLLIVDSAITASHGDIVIAAVDGEFTVKKLQLRPTVQLIPMNSAYSPITISSEDTLDVFGVVIHVVKAMR
notes: UmuD, E. coli, full-length arms, three alanine mutations T14A L17A F18A; also called UmuD T14A L17A F18A; source: purified; not further stated
B3: UmuD S60A C24A A7C (natural protein, E. coli, UniProt P0AG11 1-139, looked up)
chain: B2 chain with A7C, A14T, A17L, A18F, C24A, S60A
notes: UmuD, E. coli, with the full-length arm; single cysteine moved from position 24 to position 7; S60A; also called UmuD A7C C24A S60A; source: purified; not further stated
B4: wild-type UmuD (natural protein, E. coli, UniProt P0AG11 1-139, looked up)
chain: B2 chain with A14T, A17L, A18F
notes: UmuD, E. coli, full-length, 139 residues; also called WT UmuD; full-length UmuD; source: purified; expression from pSG5 as previously described [33, 34]
B5: UmuD S60A (natural protein, E. coli, UniProt P0AG11 1-139, looked up)
chain: B2 chain with A14T, A17L, A18F, S60A
notes: UmuD, E. coli, full-length 139 residues, non-cleavable active-site variant S60A; also called full-length UmuD-S60A; active site variant UmuD S60A; source: purified; expression from pSG5 as previously described [33, 34]
B6: UmuD 8 S60A (domain or fragment, E. coli, UniProt P0AG11 8-139, looked up)
chain: DLREIVTFPLFSDLVQCGFPSPAADYVEQRIDLNQLLIQHPSATYFVKASGDAMIDGGISDGDLLIVDSAITASHGDIVIAAVDGEFTVKKLQLRPTVQLIPMNSAYSPITISSEDTLDVFGVVIHVVKAMR
notes: UmuD, E. coli, lacking the N-terminal 7 residues (Δ1–7) of the 139-residue full-length protein; non-cleavable active-site variant S60A; Plasmid pSG5 derivative; also called UmuD Δ1–7 S60A; source: constructed in pSG5, expressed and purified as previously described [33, 34]

Changes are numbered by the printed parent chain. Names may count otherwise.

The first data set concerns the molecule itself. In words: cross-linking; 10 mM bis(maleimido)hexane (BMH), 40 μM protein, 10 min at room temperature; cross-linked dimers seen by Coomassie-stained SDS-PAGE.
Conditions: not given
In turn, B1 returned a percent cross-linked dimers of 39%.
As for B2, the percent cross-linked dimers amounted to 41%.
B3 had a percent cross-linked dimers of 71%.
With B4, the percent cross-linked dimers was found to be 25%.
For B5, the percent cross-linked dimers is 31%.
Still for that read-out and setting: under B6 stands 32%.

For the next data set, the target named is T1, DNA polymerase III α subunit, full-length (E. coli, UniProt P10443 1-1160, in the FRET assay only: labeled with Alexa Fluor 647 C2-maleimide).
T1 construct: α polymerase subunit of DNA polymerase III, E. coli, full-length; Unlabelled in the tryptophan fluorescence titration; also called pol III α; full-length α; source: purified; as previously described [21]
T1 sequence (P10443 whole entry): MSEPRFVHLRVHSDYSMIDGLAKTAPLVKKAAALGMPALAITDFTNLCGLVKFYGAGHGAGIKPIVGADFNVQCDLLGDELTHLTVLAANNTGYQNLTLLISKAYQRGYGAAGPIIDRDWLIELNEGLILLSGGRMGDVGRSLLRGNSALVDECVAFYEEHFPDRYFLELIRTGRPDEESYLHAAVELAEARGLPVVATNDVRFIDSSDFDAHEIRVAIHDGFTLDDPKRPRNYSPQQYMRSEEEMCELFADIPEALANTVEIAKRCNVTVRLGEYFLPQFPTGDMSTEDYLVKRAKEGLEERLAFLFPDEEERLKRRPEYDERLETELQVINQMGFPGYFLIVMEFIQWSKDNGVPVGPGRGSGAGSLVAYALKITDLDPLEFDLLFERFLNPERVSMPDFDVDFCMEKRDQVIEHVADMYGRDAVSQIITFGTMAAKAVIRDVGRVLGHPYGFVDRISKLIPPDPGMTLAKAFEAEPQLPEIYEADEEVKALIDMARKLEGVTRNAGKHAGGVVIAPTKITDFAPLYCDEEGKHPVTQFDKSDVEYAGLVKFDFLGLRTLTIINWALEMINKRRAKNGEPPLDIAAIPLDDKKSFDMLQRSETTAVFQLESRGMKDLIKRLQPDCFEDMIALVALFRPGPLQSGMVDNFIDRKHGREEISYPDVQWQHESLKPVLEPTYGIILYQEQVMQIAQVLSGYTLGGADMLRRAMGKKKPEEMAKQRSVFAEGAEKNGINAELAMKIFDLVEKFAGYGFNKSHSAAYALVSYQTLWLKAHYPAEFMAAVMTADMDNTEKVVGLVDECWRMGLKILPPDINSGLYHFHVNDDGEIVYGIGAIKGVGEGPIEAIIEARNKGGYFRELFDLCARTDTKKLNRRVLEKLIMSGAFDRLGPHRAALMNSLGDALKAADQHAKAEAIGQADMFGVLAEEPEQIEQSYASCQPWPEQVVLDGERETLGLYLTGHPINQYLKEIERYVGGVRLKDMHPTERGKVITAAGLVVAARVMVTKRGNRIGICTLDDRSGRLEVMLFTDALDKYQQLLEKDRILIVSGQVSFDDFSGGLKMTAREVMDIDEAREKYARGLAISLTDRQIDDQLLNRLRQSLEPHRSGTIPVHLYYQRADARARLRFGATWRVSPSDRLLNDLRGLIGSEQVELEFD
Kind of data set: other fluorescence titration; intrinsic tryptophan fluorescence of α; UmuD titrated into a solution of α; equilibrium Kd. The following applies: both partners purified.
Regarding B1, the Kd (in general, a measure of binding affinity in units of concentration) was 12.2 ± 0.2 µM.
B6 had a Kd of 8.1 ± 0.9 µM.

A further data set deals with T2, DNA polymerase III α subunit truncation α917–1160 (E. coli, UniProt P10443 917-1160).
T2 construct: α polymerase subunit of DNA polymerase III, E. coli, residues 917–1160; also called C-terminal fragment of α; source: described previously [21]
T2 sequence (P10443 917-1160): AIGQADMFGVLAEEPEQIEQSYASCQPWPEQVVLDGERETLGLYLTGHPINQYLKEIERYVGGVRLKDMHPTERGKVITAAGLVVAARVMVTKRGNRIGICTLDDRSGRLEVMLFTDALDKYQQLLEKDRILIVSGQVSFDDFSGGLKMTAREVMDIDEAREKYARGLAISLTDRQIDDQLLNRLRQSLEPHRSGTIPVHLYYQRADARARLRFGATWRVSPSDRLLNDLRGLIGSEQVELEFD
The data set is described as above. Particulars: both partners purified.
As for B1, binding was put at a Kd of 3600 ± 400 nM.
Molecule B6 had a Kd of 200 ± 400 nM.

The target in the next data set is T3, DNA polymerase III α subunit truncation α1–280 (E. coli, UniProt P10443 1-280).
T3 construct: α polymerase subunit of DNA polymerase III, E. coli, residues 1–280; also called N-terminal domain of α; PHP domain; source: described previously [21]
T3 sequence (P10443 1-280): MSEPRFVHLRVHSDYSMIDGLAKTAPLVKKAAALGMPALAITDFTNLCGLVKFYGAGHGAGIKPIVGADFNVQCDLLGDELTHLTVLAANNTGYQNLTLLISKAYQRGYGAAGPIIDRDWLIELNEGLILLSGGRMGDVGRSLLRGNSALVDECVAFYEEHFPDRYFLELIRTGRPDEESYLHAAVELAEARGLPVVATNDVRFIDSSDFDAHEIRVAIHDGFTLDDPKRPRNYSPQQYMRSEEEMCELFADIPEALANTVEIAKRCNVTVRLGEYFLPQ
The data set is described as above. Particulars: both partners purified.
Regarding B1, the Kd amounted to 5.9 ± 0.9 µM.
Same read-out and setting: the figure for B6 is 3.5 ± 0.8 µM.
